Laboratory results reported in US20070292409A1 (University of California, published 2007).

Legend:
[1] = target: G protein-q/11 α-subunit (Gαq/11), endogenous protein of 3T3-L1 adipocytes (UniProt P21279)
[2] = target: T1, insulin receptor, endogenous protein of 3T3-L1 adipocytes (UniProt P15208 28-1372, limits assumed); assay: co-immunoprecipitation with anti-GRK2 antibody from 3T3-L1 adipocyte lysates
T1 construct: The mature receptor is made of alpha and beta chains; also called IR
T1 sequence (P15208 28-1372 limits assumed): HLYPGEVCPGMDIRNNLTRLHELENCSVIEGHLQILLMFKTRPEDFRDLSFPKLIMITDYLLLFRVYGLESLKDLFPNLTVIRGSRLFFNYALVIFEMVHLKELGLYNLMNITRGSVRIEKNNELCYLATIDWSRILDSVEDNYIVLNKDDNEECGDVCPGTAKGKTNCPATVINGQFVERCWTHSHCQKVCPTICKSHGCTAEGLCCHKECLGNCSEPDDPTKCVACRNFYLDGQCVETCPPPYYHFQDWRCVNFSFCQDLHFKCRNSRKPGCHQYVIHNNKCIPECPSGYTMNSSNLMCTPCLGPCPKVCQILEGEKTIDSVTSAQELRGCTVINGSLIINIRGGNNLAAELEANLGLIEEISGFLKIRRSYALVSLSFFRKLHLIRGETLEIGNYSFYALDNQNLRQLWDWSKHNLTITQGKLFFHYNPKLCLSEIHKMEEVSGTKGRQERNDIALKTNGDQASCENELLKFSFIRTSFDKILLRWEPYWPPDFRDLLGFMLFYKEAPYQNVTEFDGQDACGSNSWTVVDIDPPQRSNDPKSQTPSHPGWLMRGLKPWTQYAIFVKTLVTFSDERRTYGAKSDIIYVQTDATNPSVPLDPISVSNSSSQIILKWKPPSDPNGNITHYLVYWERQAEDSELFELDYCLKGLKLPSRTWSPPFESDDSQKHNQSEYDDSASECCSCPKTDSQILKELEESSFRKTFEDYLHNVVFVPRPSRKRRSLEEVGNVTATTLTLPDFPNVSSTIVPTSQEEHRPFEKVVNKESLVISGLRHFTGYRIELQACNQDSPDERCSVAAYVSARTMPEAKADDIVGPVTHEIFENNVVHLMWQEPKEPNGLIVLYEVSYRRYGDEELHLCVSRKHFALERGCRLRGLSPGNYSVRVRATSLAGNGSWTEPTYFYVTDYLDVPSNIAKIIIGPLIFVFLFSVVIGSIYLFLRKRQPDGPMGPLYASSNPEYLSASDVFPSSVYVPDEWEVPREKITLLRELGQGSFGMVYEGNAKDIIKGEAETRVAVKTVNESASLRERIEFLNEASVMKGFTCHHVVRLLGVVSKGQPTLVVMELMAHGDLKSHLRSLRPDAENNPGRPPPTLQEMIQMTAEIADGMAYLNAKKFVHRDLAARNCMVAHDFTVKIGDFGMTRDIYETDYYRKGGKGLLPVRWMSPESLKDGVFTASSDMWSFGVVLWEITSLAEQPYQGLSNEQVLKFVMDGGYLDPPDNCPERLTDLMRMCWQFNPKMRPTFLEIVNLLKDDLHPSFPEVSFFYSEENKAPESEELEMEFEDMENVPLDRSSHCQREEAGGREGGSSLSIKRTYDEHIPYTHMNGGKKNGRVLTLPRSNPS

Chain of G protein-q/11 α-subunit (Gαq/11), endogenous protein of 3T3-L1 adipocytes (P21279 whole entry): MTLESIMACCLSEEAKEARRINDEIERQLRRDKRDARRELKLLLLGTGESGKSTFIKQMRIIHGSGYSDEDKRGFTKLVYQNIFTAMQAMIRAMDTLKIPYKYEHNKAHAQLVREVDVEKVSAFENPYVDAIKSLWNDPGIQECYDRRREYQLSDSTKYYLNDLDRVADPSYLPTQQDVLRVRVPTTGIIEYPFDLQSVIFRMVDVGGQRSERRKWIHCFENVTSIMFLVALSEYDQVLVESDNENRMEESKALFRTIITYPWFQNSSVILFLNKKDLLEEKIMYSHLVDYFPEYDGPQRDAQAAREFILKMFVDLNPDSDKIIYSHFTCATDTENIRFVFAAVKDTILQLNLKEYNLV

deletion mutant of GRK2 lacking the RGS domain
insulin-induced GLUT4 translocation after nuclear microinjection of the expression vector [1]: overexpression of delta-GRK2 had no effect

kinase deficient (K220R) GRK2, overexpressed (adenovirus or plasmid vector)
Gαq/11 tyrosine phosphorylation stimulated by ET-1 or insulin (PY20 immunoprecipitation, anti-Gαq/11 blot) [1]: both WT- and KD-GRK2 overexpression inhibited Gαq/11 tyrosine phosphorylation stimulated by ET-1 or insulin | insulin-induced GLUT4 translocation after nuclear microinjection of the expression vector [1]: overexpression of either WT- or KD-GRK2 by nuclear microinjection inhibited insulin-induced GLUT4 translocation | insulin-induced Gαq/11 tyrosine phosphorylation (PY20 immunoprecipitation, anti-Gαq/11 blot) [1]: overexpression of either WT- or KD-GRK2 inhibited insulin-induced Gαq/11 tyrosine phosphorylation

wild type GRK2, overexpressed (adenovirus or plasmid vector)
Gαq/11 tyrosine phosphorylation stimulated by ET-1 or insulin (PY20 immunoprecipitation, anti-Gαq/11 blot) [1]: both WT- and KD-GRK2 overexpression inhibited Gαq/11 tyrosine phosphorylation stimulated by ET-1 or insulin | insulin-induced GLUT4 translocation after nuclear microinjection of the expression vector [1]: overexpression of either WT- or KD-GRK2 by nuclear microinjection inhibited insulin-induced GLUT4 translocation | insulin-induced Gαq/11 tyrosine phosphorylation (PY20 immunoprecipitation, anti-Gαq/11 blot) [1]: overexpression of either WT- or KD-GRK2 inhibited insulin-induced Gαq/11 tyrosine phosphorylation

B1: G protein-coupled receptor kinase 2 (GRK2), endogenous protein of 3T3-L1 adipocytes (enzyme, UniProt Q99MK8 1-689, looked up)
chain: MADLEAVLADVSYLMAMEKSKATPAARASKKILLPEPSIRSVMQKYLEDRGEVTFEKIFSQKLGYLLFRDFCLNHLEEAKPLVEFYEEIKKYEKLETEEERVVRSREIFDSYIMKELLACSHPFSKNATEHVQGHLVKKQVPPDLFQPYIEEICQNLRGDVFQKFIESDKFTRFCQWKNVELNIHLTMNDFSVHRIIGRGGFGEVYGCRKADTGKMYAMKCLDKKRIKMKQGETLALNERIMLSLVSTGDCPFIVCMSYAFHTPDKLSFILDLMNGGDLHYHLSQHGVFSEADMRFYAAEIILGLEHMHNRFVVYRDLKPANILLDEHGHVRISDLGLACDFSKKRPHASVGTHGYMAPEVLQKGVAYDSSADWFSLGCMLFKLLRGHSPFRQHKTKDKHEIDRMTLTMAVELPDSFSPELRSLLEGLLQRDVNRRLGCLGRGAQEVKESPFFRSLDWQMVFLQKYPPPLIPPRGEVNAADAFDIGSFDEEDTKGIKLLDSDQELYRNFPLTISERWQQEVAETVFDTINAETDRLEARKKAKNKQLGHEEDYALGKDCIVHGYMSKMGNPFLTQWQRRYFYLFPNRLEWRGEGEAPQSLLTMEEIQSVEETQIKERKCLLLKIRGGKQFVLQCDSDPELVQWKKELRDAYREAQQLVQRVPKMKNKPRSPVVELSKVPLIQRGSANGL
notes: Precipitated from cell lysate with a rabbit polyclonal anti-GRK2 antibody; also called endogenous GRK2
binding result [2]: no binding
